In data set [1] the target is T1, GST-IκBα (1-54), regulatory domain of IκBα, P25963.
T1 chain: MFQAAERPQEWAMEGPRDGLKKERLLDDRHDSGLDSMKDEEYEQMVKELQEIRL

Data set [2] concerns the target T2, GST-NF-κB2 (754-900) (p100C), C terminal regulatory domain of NF-κB2, Q00653.
T2 chain: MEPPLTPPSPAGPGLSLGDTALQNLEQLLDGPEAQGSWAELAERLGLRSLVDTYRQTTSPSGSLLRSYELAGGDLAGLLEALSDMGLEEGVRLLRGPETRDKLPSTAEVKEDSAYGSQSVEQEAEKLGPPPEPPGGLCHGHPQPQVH

B1: IKKβ, recombinant, chromatographically pure, produced in Sf9 cells using baculoviruses (protein)
chain: MSWSPSLTTQTCGAWEMKERLGTGGFGNVIRWHNQETGEQIAIKQCRQELSPRNRERWCLEIQIMRRLTHPNVVAARDVPEGMQNLAPNDLPLLAMEYCQGGDLRKYLNQFENCCGLREGAILTLLSDIASALRYLHENRIIHRDLKPENIVLQQGEQRLIHKIIDLGYAKELDQGSLCTSFVGTLQYLAPELLEQQKYTVTVDYWSFGTLAFECITGFRPFLPNWQPVQWHSKVRQKSEVDIVVSEDLNGTVKFSSSLPYPNNLNSVLAERLEKWLQLMLMWHPRQRGTDPTYGPNGCFKALDDILNLKLVHILNMVTGTIHTYPVTEDESLQSLKARIQQDTGIPEEDQELLQEAGLALIPDKPATQCISDGKLNEGHTLDMDLVFLFDNSKITYETQISPRPQPESVSCILQEPKRNLAFFQLRKVWGQVWHSIQTLKEDCNRLQQGQRAAMMNLLRNNSCLSKMKNSMASMSQQLKAKLDFFKTSIQIDLEKYSEQTEFGITSDKLLLAWREMEQAVELCGRENEVKLLVERMMALQTDIVDLQRSPMGRKQGGTLDDLEEQARELYRRLREKPRDQRTEGDSQEMVRLLLQAIQSFEKKVRVIYTQLSKTVVCKQKALELLPKVEEVVSLMNEDEKTVVRLQEKRQKELWNLLKIACSKVRGPVSGSPDSMNASRLSQPGQLMSQPSTASNSLPEPAKKSEELVAEAHNLCTLLENAIQDTVREQDQSFTALDWSWLQTEEEEHSCLEQAS
B1: in data set [1], the “phosphorylation of GST-IκBα (1-54) in an in vitro kinase assay” value (“phosphorylation of GST-IκBα” for short) is “the regulatory domain of Iκ Bα was phosphorylated more efficiently by IKKβ than by IKKα”.

B2: NF-κB inducing kinase (NIK), recombinant, immunopurified, produced in Sf9 cells using baculoviruses (protein)
chain: MAVMEMACPGAPGSAVGQQKELPKAKEKTPPLGKKQSSVYKLEAVEKSPVFCGKWEILNDVITKGTAKEGSEAGPAAISIIAQAECENSQEFSPTFSERIFIAGSKQYSQSESLDQIPNNVAHATEGKMARVCWKGKRRSKARKKRKKKSSKSLAHAGVALAKPLPRTPEQESCTIPVQEDESPLGAPYVRNTPQFTKPLKEPGLGQLCFKQLGEGLRPALPRSELHKLISPLQCLNHVWKLHHPQDGGPLPLPTHPFPYSRLPHPFPFHPLQPWKPHPLESFLGKLACVDSQKPLPDPHLSKLACVDSPKPLPGPHLEPSCLSRGAHEKFSVEEYLVHALQGSVSSGQAHSLTSLAKTWAARGSRSREPSPKTEDNEGVLLTEKLKPVDYEYREEVHWATHQLRLGRGSFGEVHRMEDKQTGFQCAVKKVRLEVFRAEELMACAGLTSPRIVPLYGAVREGPWVNIFMELLEGGSLGQLVKEQGCLPEDRALYYLGQALEGLEYLHSRRILHGDVKADNVLLSSDGSHAALCDFGHAVCLQPDGLGKSLLTGDYIPGTETHMAPEVVLGRSCDAKVDVWSSCCMMLHMLNGCHPWTQFFRGPLCLKIASEPPPVREIPPSCAPLTAQAIQEGLRKEPIHRVSAAELGGKVNRALQQVGGLKSPWRGEYKEPRHPPPNQANYHQTLHAQPRELSPRAPGPRPAEETTGRAPKLQPPLPPEPPEPNKSPPLTLSKEESGMWEPLPLSSLEPAPARNPSSPERKATVPEQELQQLEIELFLNSLSQPFSLEEQEQILSCLSIDSLSLSDDSEKNPSKASQSSRDTLSSGVHSWSSQAEARSSSWNMVLARGRPTDTPSYFNGVKVQIQSLNGEHLHIREFHRVKVGDIATGISSQIPAAAFSLVTKDGQPVRYDMEVPDSGIDLQCTLAPDGSFAWSWRVKHGQLENRP
Turning to B2, in data set [2], the “phosphorylation of the NF-κB2 C-terminal regulatory domain in vitro” value is “both NIK and IKKα phosphorylate the C-terminal regulatory domain of NF-κB2”. Moreover, in data set [1], the “phosphorylation of GST-IκBα” value was “not at all by NIK”.

B3: IκB kinase α (IKKα), recombinant, chromatographically pure, produced in Sf9 cells using baculoviruses (protein)
chain: MERPPGLRPGAGGPWEMRERLGTGGFGNVCLYQHRELDLKIAIKSCRLELSTKNRERWCHEIQIMKKLNHANVVKACDVPEELNILIHDVPLLAMEYCSGGDLRKLLNKPENCCGLKESQILSLLSDIGSGIRYLHENKIIHRDLKPENIVLQDVGGKIIHKIIDLGYAKDVDQGSLCTSFVGTLQYLAPELFENKPYTATVDYWSFGTMVFECIAGYRPFLHHLQPFTWHEKIKKKDPKCIFACEEMSGEVRFSSHLPQPNSLCSLIVEPMENWLQLMLNWDPQQRGGPVDLTLKQPRCFVLMDHILNLKIVHILNMTSAKIISFLLPPDESLHSLQSRIERETGINTGSQELLSETGISLDPRKPASQCVLDGVRGCDSYMVYLFDKSKTVYEGPFASRSLSDCVNYIVQDSKIQLPIIQLRKVWAEAVHYVSGLKEDYSRLFQGQRAAMLSLLRYNANLTKMKNTLISASQQLKAKLEFFHKSIQLDLERYSEQMTYGISSEKMLKAWKEMEEKAIHYAEVGVIGYLEDQIMSLHAEIMELQKSPYGRRQGDLMESLEQRAIDLYKQLKHRPSDHSYSDSTEMVKIIVHTVQSQDRVLKELFGHLSKLLGCKQKIIDLLPKVEVALSNIKEADNTVMFMQGKRQKEIWHLLKIACTQSSARSLVGSSLEGAVTPQTSAWLPPTSAEHDHSLSCVVTPQDGETSAQMIEENLNCLGHLSTIIHEANEEQGNSMMNLDWSWLTE
Consider B3, for which, in data set [2], the “phosphorylation of GST-NF-κB2 (754-900) (p100C) in an in vitro kinase assay” value was “the C terminal regulatory domain of NF-κB2 was phosphorylated most efficiently by IKKα” and the “phosphorylation of the NF-κB2 C-terminal regulatory domain in vitro” value is given as “IKK is a more effective NF-B2 C-terminal kinase than NIK”. Further, in data set [1], the “phosphorylation of GST-IκBα” value is recorded as “the regulatory domain of Iκ Bα was phosphorylated more efficiently by IKKβ than by IKKα”.

Source of the values: patent US20060105414.
